Source: the supplement of paper PMC11246515
± gives the standard deviation of the averaged measurements.

Experiment: total protein half-life in vivo (active degradation + dilution); higher = more stable protein
[1] = E. coli NCM3722 delta-clpP delta-lon delta-hslV, growth: N-lim chemostat, doubling time 6 h
[2] = E. coli NCM3722 delta-lon, growth: N-lim chemostat, doubling time 6 h
[3] = wild type E. coli NCM3722, growth: C-lim chemostat, doubling time 3 h
[4] = wild type E. coli NCM3722, growth: C-lim chemostat, doubling time 6 h
[5] = wild type E. coli NCM3722, growth: P-lim chemostat, doubling time 6 h
[6] = wild type E. coli NCM3722, growth: P-lim chemostat, doubling time 12 h
[7] = E. coli NCM3722 delta-smpB, growth: N-lim chemostat, doubling time 6 h
[8] = wild type E. coli NCM3722, growth: N-lim chemostat, doubling time 6 h
[9] = wild type E. coli NCM3722, growth: N-lim chemostat, doubling time 12 h
[10] = E. coli NCM3722 delta-clpP, growth: N-lim chemostat, doubling time 6 h
[11] = wild type E. coli NCM3722, growth: C-lim chemostat, doubling time 12 h
[12] = E. coli NCM3722 delta-hslV, growth: N-lim chemostat, doubling time 6 h

Sequence	total protein half-life in vivo [1] [h]	total protein half-life in vivo [2] [h]	total protein half-life in vivo [3] [h]	total protein half-life in vivo [4] [h]	total protein half-life in vivo [5] [h]	total protein half-life in vivo [6] [h]	total protein half-life in vivo [7] [h]	total protein half-life in vivo [8] [h]	total protein half-life in vivo [9] [h]	total protein half-life in vivo [10] [h]	total protein half-life in vivo [11] [h]	total protein half-life in vivo [12] [h]
MHINIAWQDVDTVLLDMDGTLLDLAFDNYFWQKLVPETWGAKNGVTPQEAMEYMRQQYHDVQHTLNWYCLDYWSEQLGLDICAMTTEMGPRAVLREDTIPFLEALKASGKQRILLTNAHPHNLAVKLEHTGLDAHLDLLLSTHTFGYPKEDQRLWHAVAEATGLKAERTLFIDDSEAILDAAAQFGIRYCLGVTNPDSGIAEKQYQRHPSLNDYRRLIPSLM	4.35 ± 0.11	2.37 ± 2.1	0.973 ± 0.063	0.971	0.56	0.544						
MTVQDYLLKFRKISSLESLEKLYDHLNYTLTDDQELINMYRAADHRRAELVSGGRLFDLGQVPKSVWHYVQ	6.59 ± 0.11	5.67 ± 0.55			2.63	6.54 ± 0.37	4.11 ± 0.46	3.59	6.7			
MQKRAIYPGTFDPITNGHIDIVTRATQMFDHVILAIAASPSKKPMFTLEERVALAQQATAHLGNVEVVGFSDLMANFARNQHATVLIRGLRAVADFEYEMQLAHMNRHLMPELESVFLMPSKEWSFISSSLVKEVARHQGDVTHFLPENVHQALMAKLA [P0A6I6]	4.49	5.58		6.01 ± 0.25	6.14 ± 0.072	12.9 ± 1	4.82 ± 1	4.62	7.33 ± 0.35	5.11 ± 0.59	10.8	
MLPFLKAPADAPLMTDKYEIDARYRYWRRHILLTIWLGYALFYFTRKSFNAAVPEILANGVLSRSDIGLLATLFYITYGVSKFVSGIVSDRSNARYFMGIGLIATGIINILFGFSTSLWAFAVLWVLNAFFQGWGSPVCARLLTAWYSRTERGGWWALWNTAHNVGGALIPIVMAAAALHYGWRAGMMIAGCMAIVVGIFLCWRLRDRPQALGLPAVGEWRHDALEIAQQQEGAGLTRKEILTKYVLLNPYIWLLSFCYVLVYVVRAAINDWGNLYMSETLGVDLVTANTAVTMFELGGFIGALVAGWGSDKLFNGNRGPMNLIFAAGILLSVGSLWLMPFASYVMQATCFFTIGFFVFGPQMLIGMAAAECSHKEAAGAATGFVGLFAYLGASLAGWPLAKVLDTWHWSGFFVVISIAAGISALLLLPFLNAQTPREA	7.27	5.43 ± 0.18	2.81	6.04		10.6 ± 1.1	6.52 ± 0.92	5.01 ± 2.2	> 16	6.56 ± 0.2	10.4	5.26
MTPILNHYFARINWSGAAAVNIDTLRALHLKHNCTIPFENLDVLLPREIQLDNQSPEEKLVIARRGGYCFEQNGVFERVLRELGFNVRSLLGRVVLSNPPALPPRTHRLLLVELEEEKWIADVGFGGQTLTAPIRLVSDLVQTTPHGEYRLLQEGDDWVLQFNHHQHWQSMYRFDLCEQQQSDYVMGNFWSAHWPQSHFRHHLLMCRHLPDGGKLTLTNFHFTHYENGHAVEQRNLPDVASLYAVMQEQFGLGVDDAKHGFTVDELALVMAAFDTHPEAGK		4.618 ± 0.018		2.81		3.88	2.15 ± 0.18	3.11 ± 0.3	5.26 ± 0.66	2.34 ± 0.39	4.65	3.1
MQSLTTALENLLRHLSQEIPATPGIRVIDIPFPLKDAFDALSWLASQQTYPQFYWQQRNGDEEAVVLGAITRFTSLDQAQRFLRQHPEHADLRIWGLNAFDPSQGNLLLPRLEWRRCGGKATLRLTLFSESSLQHDAIQAKEFIATLVSIKPLPGLHLTTTREQHWPDKTGWTQLIELATKTIAEGELDKVVLARATDLHFASPVNAAAMMAASRRLNLNCYHFYMAFDGENAFLGSSPERLWRRRDKALRTEALAGTVANNPDDKQAQQLGEWLMADDKNQRENMLVVEDICQRLQADTQTLDVLPPQVLRLRKVQHLRRCIWTSLNKADDVICLHQLQPTAAVAGLPRDLARQFIARHEPFTREWYAGSAGYLSLQQSEFCVSLRSAKISGNVVRLYAGAGIVRGSDPEQEWQEIDNKAAGLRTLLQME	4.68 ± 0.47	4.47 ± 0.15	2.96 ± 0.1	4.82 ± 0.16	5.06 ± 0.77	11.1 ± 0.5	3.94 ± 0.32	3.92 ± 0.21	6.68 ± 0.27	> 8	10.2 ± 0.62	3.92 ± 0.49
MKTAYIAKQRQISFVKSHFSRQLEERLGLIEVQAPILSRVGDGTQDNLSGCEKAVQVKVKALPDAQFEVVHSLAKWKRQTLGQHDFSAGEGLYTHMKALRPDEDRLSPLHSVYVDQWDWERVMGDGERQFSTLKSTVEAIWAGIKATEAAVSEEFGLAPFLPDQIHFVHSQELLSRYPDLDAKGRERAIAKDLGAVFLVGIGGKLSDGHRHDVRAPDYDDWSTPSELGHAGLNGDILVWNPVLEDAFELSSMGIRVDADTLKHQLALTGDEDRLELEWHQALLRGEMPQTIGGGIGQSRLTMLLLQLPHIGQVQCGVWPAAVRESVPSLL	2.59 ± 0.04		2.53 ± 0.085	2.9 ± 0.16	2.37 ± 0.58	5.24 ± 1.9	2.771 ± 0.0098	2.29 ± 0.19	4.02 ± 1	4.18 ± 2.2	5.26 ± 0.4	3.06 ± 0.71
MTINFRRNALQLSVAALFSSAFMANAADVPQVKVTVTDKQCEPMTITVNAGKTQFIIQNHSQKALEWEILKGVMVVEERENIAPGFSQKMTANLQPGEYDMTCGLLTNPKGKLIVKGEATADAAQSDALLSLGGAITAYKAYVMAETTQLVTDTKAFTDAIKAGDIEKAKALYAPTRQHYERIEPIAELFSDLDGSIDAREDDYEQKAADPKFTGFHRLEKALFGDNTTKGMDQYAEQLYTDVVDLQKRISELAFPPSKVVGGAAGLIEEVAASKISGEEDRYSHTDLWDFQANVEGSQKIVDLLRPQLQKANPELLAKVDANFKKVDTILAKYRTKDGFETYDKLTDADRNALKGPITALAEDLAQLRGVLGLD [P0AB24]	4.39 ± 0.98	5.84 ± 0.061	2.967 ± 0.019	6.25 ± 0.72	5.01 ± 0.35	12.2 ± 2.8	4.58 ± 1.5	5.73 ± 0.24	10.3 ± 0.23	4.5 ± 0.11	12.8 ± 0.93	6.43 ± 1.4
